Source: IntAct's records for PubMed 31515488

B1: Cyclin-dependent kinase 4 (Homo sapiens), P11802 (parent)
chain: MATSRYEPVAEIGVGAYGTVYKARDPHSGHFVALKSVRVPNGGGGGGGLPISTVREVALLRRLEAFEHPNVVRLMDVCATSRTDREIKVTLVFEHVDQDLRTYLDKAPPPGLPAETIKDLMRQFLRGLDFLHANCIVHRDLKPENILVTSGGTVKLADFGLARIYSYQMALTPVVVTLWYRAPEVLLQSTYATPVDMWSVGCIFAEMFRRKPLFCGNSEADQLGKIFDLIGLPPEDDWPRDVSLPRGAFPPRGPRPVQSVVPEMEESGAQLLLEMLTFNPHKRISAFRALQHSYLHKDEGNPE
B2: Zinc finger protein Aiolos (Homo sapiens), Q9UKT9 (parent)
chain: MEDIQTNAELKSTQEQSVPAESAAVLNDYSLTKSHEMENVDSGEGPANEDEDIGDDSMKVKDEYSERDENVLKSEPMGNAEEPEIPYSYSREYNEYENIKLERHVVSFDSSRPTSGKMNCDVCGLSCISFNVLMVHKRSHTGERPFQCNQCGASFTQKGNLLRHIKLHTGEKPFKCHLCNYACQRRDALTGHLRTHSVEKPYKCEFCGRSYKQRSSLEEHKERCRTFLQSTDPGDTASAEARHIKAEMGSERALVLDRLASNVAKRKSSMPQKFIGEKRHCFDVNYNSSYMYEKESELIQTRMMDQAINNAISYLGAEALRPLVQTPPAPTSEMVPVISSMYPIALTRAEMSNGAPQELEKKSIHLPEKSVPSERGLSPNNSGHDSTDTDSNHEERQNHIYQQNHMVLSRARNGMPLLKEVPRSYELLKPPPICPRDSVKVINKEGEVMDVYRCDHCRVLFLDYVMFTIHMGCHGFRDPFECNMCGYRSHDRYEFSSHIARGEHRALLK

Variants of: B1
Conditions: with ccnd1_human CCND1, P24385
Sequence of ccnd1_human CCND1, P24385 (P24385 whole entry): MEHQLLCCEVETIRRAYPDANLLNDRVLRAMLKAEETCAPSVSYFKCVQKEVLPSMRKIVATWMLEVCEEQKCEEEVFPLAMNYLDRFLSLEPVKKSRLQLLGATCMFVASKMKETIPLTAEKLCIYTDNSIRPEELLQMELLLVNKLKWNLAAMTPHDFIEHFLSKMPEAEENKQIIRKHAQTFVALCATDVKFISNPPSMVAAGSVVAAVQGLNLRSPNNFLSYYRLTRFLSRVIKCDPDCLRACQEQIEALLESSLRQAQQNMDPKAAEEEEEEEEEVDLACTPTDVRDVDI

effect of a mutation on the interaction	Variant
with no effect	R255H

Variants of: B1
Conditions: with ccnd3_human CCND3, P30281
Sequence of ccnd3_human CCND3, P30281 (P30281 whole entry): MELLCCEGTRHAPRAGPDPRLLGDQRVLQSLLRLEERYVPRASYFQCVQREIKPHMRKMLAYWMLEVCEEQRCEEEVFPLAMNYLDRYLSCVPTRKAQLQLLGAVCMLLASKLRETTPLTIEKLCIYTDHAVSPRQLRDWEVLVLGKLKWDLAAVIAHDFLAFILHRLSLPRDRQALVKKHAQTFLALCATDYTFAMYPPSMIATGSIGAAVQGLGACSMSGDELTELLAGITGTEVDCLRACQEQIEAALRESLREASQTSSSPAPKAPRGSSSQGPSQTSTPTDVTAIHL

effect of a mutation on the interaction	Variant
with no effect	R255H
with no effect	R209C

Variants of: B1
Conditions: with cdn2c_human CDKN2C

effect of a mutation on the interaction	Variant
with no effect	R255H
with no effect	R209C

Variants of: B1
Conditions: with ccnd2_human CCND2, P30279
Sequence of ccnd2_human CCND2, P30279 (P30279 whole entry): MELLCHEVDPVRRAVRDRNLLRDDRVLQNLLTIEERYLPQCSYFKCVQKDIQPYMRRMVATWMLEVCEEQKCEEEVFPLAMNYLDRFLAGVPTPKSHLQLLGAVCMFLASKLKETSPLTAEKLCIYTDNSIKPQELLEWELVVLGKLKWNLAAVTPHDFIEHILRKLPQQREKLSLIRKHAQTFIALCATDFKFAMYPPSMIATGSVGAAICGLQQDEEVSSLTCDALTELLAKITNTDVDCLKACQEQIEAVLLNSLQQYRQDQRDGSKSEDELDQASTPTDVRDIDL

effect of a mutation on the interaction	Variant
with no effect	R255H

Variants of: B1
Conditions: with cdn2b_human CDKN2B

effect of a mutation on the interaction	Variant
with no effect	R209C

Variants of: B1
Conditions: with ccnd1_human CCND1, P24385
Remark: another data set of the same source

effect of a mutation on the interaction	Variant
with no effect	G43E

Variants of: B1
Conditions: with ccnd2_human CCND2, P30279
Remark: another data set of the same source

effect of a mutation on the interaction	Variant
with no effect	G43E

Variants of: B1
Conditions: with cdn2c_human CDKN2C
Remark: another data set of the same source

effect of a mutation on the interaction	Variant
with no effect	G43E

Variants of: B1
Conditions: with ccnd3_human CCND3, P30281
Remark: another data set of the same source

effect of a mutation on the interaction	Variant
with no effect	G43E

Variants of: B2
Conditions: with aakb2_human PRKAB2, O43741
Sequence of aakb2_human PRKAB2, O43741 (O43741 whole entry): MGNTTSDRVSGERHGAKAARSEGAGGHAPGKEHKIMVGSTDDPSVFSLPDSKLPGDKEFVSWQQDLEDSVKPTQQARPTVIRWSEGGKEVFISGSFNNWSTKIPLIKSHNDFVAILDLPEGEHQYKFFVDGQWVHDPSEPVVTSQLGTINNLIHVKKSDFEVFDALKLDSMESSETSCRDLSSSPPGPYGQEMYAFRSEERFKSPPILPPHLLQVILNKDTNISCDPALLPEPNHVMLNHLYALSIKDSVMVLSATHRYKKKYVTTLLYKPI

effect of a mutation on the interaction	Variant
with no effect	N119D

Variants of: B2
Conditions: with exoc8_human EXOC8, Q8IYI6
Sequence of exoc8_human EXOC8, Q8IYI6 (Q8IYI6 whole entry): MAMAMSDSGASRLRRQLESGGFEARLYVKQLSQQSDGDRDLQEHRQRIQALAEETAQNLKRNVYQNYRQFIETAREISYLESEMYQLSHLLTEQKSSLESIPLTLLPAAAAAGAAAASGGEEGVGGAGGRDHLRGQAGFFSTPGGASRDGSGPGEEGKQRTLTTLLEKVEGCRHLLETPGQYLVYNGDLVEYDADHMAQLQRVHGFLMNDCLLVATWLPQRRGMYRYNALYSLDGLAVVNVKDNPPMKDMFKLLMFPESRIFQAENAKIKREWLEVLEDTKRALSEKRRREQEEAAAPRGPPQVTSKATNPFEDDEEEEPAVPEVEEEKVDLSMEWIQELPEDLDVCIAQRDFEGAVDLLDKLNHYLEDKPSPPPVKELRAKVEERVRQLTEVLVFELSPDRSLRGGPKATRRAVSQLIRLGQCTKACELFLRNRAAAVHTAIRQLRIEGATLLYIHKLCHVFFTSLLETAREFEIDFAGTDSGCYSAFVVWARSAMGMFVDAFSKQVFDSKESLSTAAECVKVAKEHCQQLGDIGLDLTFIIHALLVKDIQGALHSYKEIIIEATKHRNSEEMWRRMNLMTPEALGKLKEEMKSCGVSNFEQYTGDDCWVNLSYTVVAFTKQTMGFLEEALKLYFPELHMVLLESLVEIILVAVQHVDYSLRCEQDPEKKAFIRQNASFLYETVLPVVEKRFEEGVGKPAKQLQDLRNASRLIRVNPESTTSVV

effect of a mutation on the interaction	Variant
with no effect	N119D

Variants of: B2
Conditions: with tb22b_human TBC1D22B

effect of a mutation on the interaction	Variant
with no effect	N119D

Variants of: B2
Conditions: with p85b_human PIK3R2, O00459
Sequence of p85b_human PIK3R2, O00459 (O00459 whole entry): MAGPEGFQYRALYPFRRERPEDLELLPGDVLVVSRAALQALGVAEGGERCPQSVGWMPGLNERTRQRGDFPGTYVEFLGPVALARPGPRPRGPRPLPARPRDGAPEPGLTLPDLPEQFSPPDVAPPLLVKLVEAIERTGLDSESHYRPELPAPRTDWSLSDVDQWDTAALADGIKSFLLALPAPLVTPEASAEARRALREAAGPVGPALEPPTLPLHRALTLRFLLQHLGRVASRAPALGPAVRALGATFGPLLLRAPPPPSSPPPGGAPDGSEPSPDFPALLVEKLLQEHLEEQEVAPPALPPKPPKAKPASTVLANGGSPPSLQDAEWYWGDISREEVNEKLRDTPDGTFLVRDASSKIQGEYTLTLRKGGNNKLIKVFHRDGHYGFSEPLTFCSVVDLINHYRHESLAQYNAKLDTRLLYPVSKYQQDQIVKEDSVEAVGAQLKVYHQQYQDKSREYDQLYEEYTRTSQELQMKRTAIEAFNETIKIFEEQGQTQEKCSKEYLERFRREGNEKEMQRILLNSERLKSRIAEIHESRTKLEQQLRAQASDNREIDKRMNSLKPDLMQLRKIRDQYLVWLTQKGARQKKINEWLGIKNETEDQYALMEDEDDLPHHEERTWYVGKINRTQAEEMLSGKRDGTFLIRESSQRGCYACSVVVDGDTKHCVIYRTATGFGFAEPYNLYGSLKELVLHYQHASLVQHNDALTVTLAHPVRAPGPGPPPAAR

effect of a mutation on the interaction	Variant
disrupting interaction strength	N119D

Variants of: B2
Conditions: with rpac1_human POLR1C

effect of a mutation on the interaction	Variant
with no effect	N119D

Variants of: B2
Conditions: with pfd5_human PFDN5, Q99471
Sequence of pfd5_human PFDN5, Q99471 (Q99471 whole entry): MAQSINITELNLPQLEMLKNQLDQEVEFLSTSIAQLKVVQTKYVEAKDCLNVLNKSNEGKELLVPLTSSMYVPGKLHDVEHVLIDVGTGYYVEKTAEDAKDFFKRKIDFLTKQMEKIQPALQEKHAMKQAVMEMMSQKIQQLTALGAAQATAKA

effect of a mutation on the interaction	Variant
with no effect	N119D

Variants of: B2
Conditions: with nek6_human NEK6, Q9HC98
Sequence of nek6_human NEK6, Q9HC98 (Q9HC98 whole entry): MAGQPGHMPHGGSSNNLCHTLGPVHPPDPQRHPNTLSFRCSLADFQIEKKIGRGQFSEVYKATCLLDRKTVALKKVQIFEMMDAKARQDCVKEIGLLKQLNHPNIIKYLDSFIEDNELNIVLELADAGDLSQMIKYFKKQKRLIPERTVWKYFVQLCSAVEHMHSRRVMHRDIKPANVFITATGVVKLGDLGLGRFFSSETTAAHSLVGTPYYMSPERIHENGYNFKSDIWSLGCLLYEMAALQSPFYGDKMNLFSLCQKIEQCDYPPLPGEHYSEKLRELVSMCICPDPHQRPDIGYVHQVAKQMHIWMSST

effect of a mutation on the interaction	Variant
with no effect	N119D

Variants of: B2
Conditions: with exos5_human EXOSC5, Q9NQT4
Sequence of exos5_human EXOSC5, Q9NQT4 (Q9NQT4 whole entry): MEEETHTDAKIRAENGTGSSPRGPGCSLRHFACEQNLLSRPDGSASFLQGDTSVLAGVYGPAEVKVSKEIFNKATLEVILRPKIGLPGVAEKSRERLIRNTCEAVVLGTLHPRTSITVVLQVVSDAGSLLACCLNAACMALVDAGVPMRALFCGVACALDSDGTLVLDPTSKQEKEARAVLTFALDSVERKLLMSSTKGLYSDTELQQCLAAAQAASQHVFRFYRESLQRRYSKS

effect of a mutation on the interaction	Variant
with no effect	N119D

Variants of: B2
Conditions: with tstd2_human TSTD2, Q5T7W7
Sequence of tstd2_human TSTD2, Q5T7W7 (Q5T7W7 whole entry): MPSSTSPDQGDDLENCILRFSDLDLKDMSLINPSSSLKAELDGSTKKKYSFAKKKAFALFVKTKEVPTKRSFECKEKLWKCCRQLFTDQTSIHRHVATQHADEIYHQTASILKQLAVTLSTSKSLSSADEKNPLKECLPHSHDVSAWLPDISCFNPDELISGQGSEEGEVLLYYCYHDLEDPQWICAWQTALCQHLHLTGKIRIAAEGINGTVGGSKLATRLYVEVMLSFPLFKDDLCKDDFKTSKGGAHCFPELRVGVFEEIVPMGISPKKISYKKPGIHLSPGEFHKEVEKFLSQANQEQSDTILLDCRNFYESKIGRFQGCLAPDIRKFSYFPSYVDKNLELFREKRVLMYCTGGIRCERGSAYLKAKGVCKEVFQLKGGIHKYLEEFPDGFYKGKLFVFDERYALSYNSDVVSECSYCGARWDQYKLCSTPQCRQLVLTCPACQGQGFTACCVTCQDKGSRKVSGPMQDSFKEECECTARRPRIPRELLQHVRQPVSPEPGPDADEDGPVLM

effect of a mutation on the interaction	Variant
with no effect	N119D

Variants of: B2
Conditions: with aakb2_human PRKAB2, O43741
Remark: another data set of the same source

effect of a mutation on the interaction	Variant
with no effect	I338M

Variants of: B2
Conditions: with pfd5_human PFDN5, Q99471
Remark: another data set of the same source

effect of a mutation on the interaction	Variant
with no effect	I338M

Variants of: B2
Conditions: with p85b_human PIK3R2, O00459
Remark: another data set of the same source

effect of a mutation on the interaction	Variant
with no effect	I338M
